Assay results as given in patent US20190307907A1, “MOLECULAR SENSOR FOR NMR/MRI BASED ON ANALYTE-DEPENDENT SPECTRAL CHANGES OF TEMPORARILY ENCAPSULATED HYPERPOLARIZED 129XE” (KLINIKUM RECHTS DER ISAR DER TECHNISCHEN UNIVERSITÄT MÜNCHEN, priority 2016, published 2019).
Where no end group is shown, it is not given here. Cr‑A = cryptophane A cage on the Lys side chain; 5‑Fluo‑M = fluorescein maleimide

Legend:
[1] = Circular dichroism and CEST spectra at different trifluoroethanol (TFE) concentrations (FIG. 12); type: physicochemical; details: for CEST signal in TFE: 20% and 50% TFE; for CEST signal in TFE / CEST signal in water: without Ca2+ or CaM; for helicity of the peptide moiety (CD spectra): different concentrations of TFE
Excerpt: FIG. 12: Spectroscopic changes upon conformational change.

calmodulin [2] = molecular target: T1, calmodulin (Homo sapiens, UniProt P0DP23); assay: Hyper-CEST spectra of cryptophane-conjugated peptides with calmodulin in absence and presence of calcium (FIG. 5); type: biochemical; details: peptide 1 μM, calmodulin 3 μM, MOPS; for Ca2+-dependent CEST unsuppression / signal change on calmodulin binding: calcium up to 100 μM; for CEST suppression (baseline, absence of calcium): no calcium, hyperpolarized 129Xe, 9.4 T
Protocol: Hyperpolarized Xenon was bubbled into buffered (MOPS) solutions containing different cryptophane bearing peptides indicated in the respective subfigures (1 μM) and calmodulin (3 μM) in the absence and presence of 100 μM calcium and CEST spectra were obtained on a 9.4 T Bruker AV 400 wide bore NMR spectrometer. (E) Effects of C-terminal portion of RS20 on the NMR-signal modulation. Replacement of the maleimide-Fluorescein by a maleimide capping group (NEM) partially unsuppresses the CEST effect.
However, the CEST suppression and Ca^2+-mediated unsuppression is weaker if the cryptophane cage is attached at the third lysine (@K3, FIG. 5B). […] (FIG. 5C).
(§1) The production, delivery and application of hyperpolarized Xe for NMR and MRI studies has been described previously including a full list of materials (Witte et al., 2012; Witte et al., 2014). Typically, hyperpolarized ^129Xe (20% polarization and more) is generated by spin exchange optical pumping using a 150 W continuous wave laser (795 nm, 0.5 nm bandwidth) in a custom-designed continuous flow setup at 4.5 bar absolute pressure using a gas mixture of 5% Xe (26.4% natural abundance of ^129Xe), 10% N2, and 85% He.
Experiments benefit from high field MRI scanners because of the increased spectral resolution for resolving the CEST response. As an example, a 9.4 T NMR spectrometer can be used for the NMR experiments. It requires gradient coils for MR imaging and a variable temperature unit for adjusting the sample temperature. A 10 mm inner-diameter double resonant probe (^129Xe (110 MHz) and ^iH (400 MHz)), can be used for excitation and detection.
The freshly hyperpolarized xenon gas mix is directly bubbled into solution for ca. 15 seconds at a total flow rate of 0.1 SLM followed by a 1 s delay (to allow possible remaining bubbles to collapse) before signal acquisition. To reduce foaming, 0.1% of Pluronic® L81 may be added to the sample. After bubbling, a saturation RF pulse is irradiated at the desired frequency and the signal of free Xe in solution is observed. ^129Xe Hyper-CEST MR images can be acquired using averages of a RARE sequence with a slice-selective 90° gaussian shaped excitation pulse and high RARE factor (up to 32 for a 32×32 matrix size) due to sufficiently slow T2 relaxation. Two images are acquired, one with an off-resonant saturation pulse for control and one with an on-resonant saturation pulse to induce signal loss in the vicinity of the sensor. Hyper-CEST MR images are obtained by a pixel-wise subtraction of the noise corrected off- and on-resonant images. All data analysis was performed with MATLAB®.

calmodulin [3] = molecular target: T1, calmodulin; assay: Hyper-CEST calcium titration, binding curves of cryptophane-peptide sensors with calmodulin; details: from CEST binding curves; 2 μM calmodulin; free calcium 0 to 39 μM; MOPS buffer; read-out: apparent dissociation constant
Protocol: (A) CEST spectra from M13 with a cryptophane Cage and also harboring a fluorescein (G-K(Cr-A)-[…]-C(5-Fluo-M)-amid) where Cr-A denotes the cryptophane A cage attached on the lysine residue and 5-Fluo-M a fluorescein attached to a cysteine) in the presence of 2 μM calmodulin and in response to free calcium concentrations ranging from 0 to 39 μM (MOPS buffer) (B) CEST spectra from RS20 (GRR-K(Cr-A)-WQKTGHAVRAIGRLSSS-C(5-Fluo-M)-amid; same annotation of modifications as in (A)) plotted analogously as in (A). (C) Corresponding binding curves yielding an apparent dissociation constant of 0.91 μM and 1 μM for M13 and RS20 respectively.
as §1
Experiments benefit from high field MRI scanners because of the increased spectral resolution for resolving the CEST response. As an example, a 9.4 T NMR spectrometer can be used for the NMR experiments. […]

HEK293 cells = assay: Cellular uptake of cage-conjugated peptides, confocal microscopy and FACS (FIG. 8); type: cell-based; details: 25 μM, 20 minutes
Protocol: (A) Cage-conjugated peptides that were also labeled with fluorescein (25 μM) were incubated on HEK293 cells for 20 minutes followed by confocal microscopy imaging (nuclear counterstain with DAPI). (B) Analysis of FACS experiments with cells incubated with different peptides modified with cryptophane cages and fluorescein indicating labeling of the cells with the fluorescent peptides (sequences as indicated in FIG. 2; @K# indicates the lysine residue number used for conjugation of the cryptophane cage). […] The cellular uptake of similar EF-protein-binding peptides is likely due to their high scores on prediction tools for cell-penetration such as CPPpred or CellPPD.

[4] = system: lysates obtained from HEK293 cells; assay: Functionality of the sensor in cell lysates (FIG. 13); type: biochemical; details: for sensor response on addition of saturating calcium: HEK293 lysate with CaM, saturating amounts of calcium; for sensor response on addition of just CaM: HEK293 lysate, calcium already present in the lysate
Protocol: FIG. 13: Functionality of the sensor in cell lysates. The sensor M13-based sensor (blue) and RS20-based sensor (red) were added to lysates obtained from HEK293 cells.

| Substance | CEST signal in TFE [1] | helicity of the peptide moiety (CD spectra) [1] | CEST signal in water [1] | Ca2+-dependent CEST unsuppression / signal change on calmodulin binding (calmodulin [2]) | CEST suppression (baseline, absence of calcium) (calmodulin [2]) | Kd (calmodulin [3]) [nM] | cellular uptake (confocal microscopy) (HEK293 cells) | sensor response on addition of saturating calcium [4] | sensor response on addition of just CaM [4] | Ca2+-dependent CEST unsuppression / signal change on calmodulin binding (calmodulin [2]; listed as @K3) | Ca2+-dependent CEST unsuppression / signal change on calmodulin binding (calmodulin [2]; listed as RS20-cage@K2) | CEST suppression (baseline, absence of calcium) (calmodulin [2]; listed as @K3) | CEST suppression (baseline, absence of calcium) (calmodulin [2]; listed as RS20-cage@K2) | Ca2+-dependent CEST unsuppression / signal change on calmodulin binding (calmodulin [2]; listed as cage-conjugated calcineurin) |
| --- | --- | --- | --- | --- | --- | --- | --- | --- | --- | --- | --- | --- | --- | --- |
| GRR-K(Cr-A)-WQKTGHAVRAIGRLSSS-C(5-Fluo-M)-amid (GRRK(Cr‑A)WQKTGHAVRAIGRLSSSC(5‑Fluo‑M)-NH2) [Cr-A@K1_RS20_Fluorescein] | turned on | increase of the helicity | no CEST signal | strong, Ca^2+-dependent CEST unsuppression | complete CEST suppression | 1000 | uptake | stronger response | turned on the sensor |  |  |  |  |  |
| G-K(Cr-A)-RRWKKNFIAVSAANRFKKISSSGAL-C(5-Fluo-M)-amid (GKRRWKKNFIAVSAANRFKKISSSGALC; cryptophane A on Lys; fluorescein on Cys; amide; Cr-A@K1_M13_Fluorescein) | turned on | increase of the helicity | no CEST signal |  |  | 910 |  | stronger response | turned on the sensor |  |  |  |  |  |
| GRRKWQK(Cr-A)-TGHAVRAIGRLSSS-C(5-Fluo-M)-amid (GRRKWQK(Cr‑A)TGHAVRAIGRLSSSC(5‑Fluo‑M)-NH2) [Cr-A@K3_RS20_Fluorescein, RS20 peptide with cryptophane A shifted three amino acids toward the center, C-terminal fluorescein] |  |  |  |  |  |  |  |  |  | weaker | diminishes | weaker | diminishes the CEST suppression |  |
| ARKEVIRNKIRAIGK-CrytophaneCage-MARVFSVLR [calcineurin A peptide] |  |  |  |  | neither show a suppression |  |  |  |  |  |  |  |  | does not exhibit a change in the CEST effect |
